B1: biotin-labeled AP2µ [modified: biotin (incorporated with Transcend Biotinylated tRNA during translation); biotin (incorporated with Transcend Biotinylated tRNA during translation)] [murine] / GST-21-mer of CD79a centered on Y193 [murine] (parent complex)
chain 1: MIGGLFIYNHKGEVLISRVYRDDIGRNAVDAFRVNVIHARQQVRSPVTNIARTSFFHVKRSNIWLAAVTKQNVNAAMVFEFLYKMCDVMAAYFGKISEENIKNNFVLIYELLDEILDFGYPQNSETGALKTFITQQGIKSQHQTKEEQSQITSQVTGQIGWRREGIKYRRNELFLDVLESVNLLMSPQGQVLSAHVSGRVVMKSYLSGMPECKFGMNDKIVIEKQGKGTADETSKSGKQSIAIDDCTFHQCVRLSKFDSERSISFIPPDGEFELMRYRTTKDIILPFRVIPLVREVGRTKLEVKVVIKSNFKPSLLAQKIEVRIPTPLNTSGVQVICMKGKAKYKASENAIVWKIKRMAGMKESQISAEIELLPTNDKKKWARPPISMNFEVPFAPSGLKVRYLKVFEPKLNYSDHDVIKWVRYIGRSGIYETRC
chain 2: EGLNLDDCSMYEDISRGLQGT
B2: biotin-labeled AP2µ [modified: biotin (incorporated with Transcend Biotinylated tRNA during translation); biotin (incorporated with Transcend Biotinylated tRNA during translation)] [murine] / GST-CD79a cytoplasmic domain [murine] (parent complex)
chain 1: B1 chain 1
chain 2: RKRWQNEKFGVDMPDDYEDENLYEGLNLDDCSMYEDISRGLQGTYQDVGNLHIGDAQLEKP
B3: biotin-labeled AP2µ [modified: biotin (incorporated with Transcend Biotinylated tRNA during translation); biotin (incorporated with Transcend Biotinylated tRNA during translation)] [murine] / GST-21-mer of CD79a centered on the membrane … (parent complex)
chain 1: B1 chain 1
chain 2: MPDDYEDENLYEGLNLDDCSM

Variants of: B1
Test: in vitro binding of AP2µ-btn to bead-captured GST-21-mer; parent: 65; read off a plot

screen value	Variant
~53 % of full-length CD79a	chain 2 Y11E
~50 % of full-length CD79a	chain 2 Y11A

Variants of: B2
Test: in vitro binding of AP2µ-btn to bead-captured GST fusion protein; parent: 100; read off a plot

Variant	percent of parent
chain 2 Y45A	~105 % of CD79a
chain 2 Y45E	~102 % of CD79a
chain 2 Y23A	~77 % of CD79a
chain 2 Y23E, chain 2 Y45E	~41 % of CD79a
chain 2 Y34E	~100 % of CD79a
chain 2 Y34A	~99 % of CD79a
chain 2 Y23A, chain 2 Y34A, chain 2 Y45A	~53 % of CD79a
chain 2 Y23E, chain 2 Y34E, chain 2 Y45E	~24 % of CD79a
chain 2 Y23A, chain 2 Y45A	~50 % of CD79a
chain 2 Y34E, chain 2 Y45E	~83 % of CD79a

Results, then the variant that gave them:

percent of parent	Variant
~49 % of CD79a	chain 2 Y23E
~78 % of CD79a	chain 2 Y23A, chain 2 Y34A
~58 % of CD79a	chain 2 Y23E, chain 2 Y34E
~104 % of CD79a	chain 2 Y34A, chain 2 Y45A

Variants of: B3
Test: in vitro binding of AP2µ-btn to bead-captured GST-21-mer; parent: 81; read off a plot

screen value	Variant
~41 % of full-length CD79a	chain 2 Y11A
~42 % of full-length CD79a	chain 2 Y11E

Reference: paper PMC3553015 (2013)
